The test system of data set [1] is CD70^+ CD8^+/Vβ17^+ T cells. The data set can be described thus: In vitro deletion of M1 peptide-specific T cells (flow cytometry, viable counts). Type of data set: cell-based, human. The protocol:
PBMCs from a normal HLA-A0201donor were stimulated with the M1 peptide for 5 days. 1F6 ADCs or control non-binding IgG (cIgG) ADCs were added to cells to a final concentration of 1 μg/ml. Total viable cell counts were conducted at 24, 48, and 76 hours post drug addition. Total numbers of CD8^+/Vβ17^+ for each culture condition are calculated (upper panel).
FIG. 19: Dose-response comparison of anti-CD70 ADCs on deletion of antigen-specific CD8^+/Vβ17^+ cells. PBMCs from a normal HLA-A0201donor were stimulated with the M1 peptide for 5 days. 1F6 ADCs or control non-binding IgG (cIgG) ADCs were given to cells to the specified final concentrations. The percentages of CD8^+/Vβ17^+ cells 4 days post ADC addition was determined by flow cytometry as in FIG. 17.
To examine CD70 expression on activated antigen-specific T cells, PBMCs from a normal donor expressing HLA-A0201 were stimulated with the M1 peptide. PBMCs were seeded at 2×10^6 cells/ml with 5 μg/ml of M1 peptide in AIMV medium supplemented with 5% human AB serum. IL-2 (Proleukin, Chiron) and IL-15 (R&D Systems, MN) were added to final concentrations of 20 IU/ml and 5 ng/ml, respectively, once every two days beginning on day 2 after culture initiation. The expansion of CD8^+/Vβ17^+ T cells and induction of CD70 on the CD8^+/Vβ17^+ was followed by three-color flow cytometry. Vβ17^+ T cells were identified by the anti-TCRVβ17 mAb clone E17.5F3 (Beckman Coulter, Miami, Fla.).
PBMCs from a normal donor expressing HLA-A0201 were stimulated with the M1 peptide as described in Example 11. On day 5, cells were harvested, washed, and re-seeded at 0.5-1×10^6 cells/ml (approximately 100,000 of CD8^+/Vβ17^+ T cells) in fresh AIMV medium supplemented with 5% human AB, 20 IU/ml of IL-2, and 5 ng/ml of IL-15. 1F6 or control non-binding IgG (cIgG) ADCs were added to some cultures to a final concentration of 1 μg/ml. Total viable cell counts were conducted 24, 48, and 76 hours after ADC addition. Two-color flow cytometry was conducted to determine the percentages of CD8^+/Vβ17^+ cells among the viable cells. The absolute number of CD8^+/Vβ17^+ T cells in each culture was then calculated. […] The effects of 1F6 ADCs on the CD8^+/Vβ17^− cells were also evaluated.
The potency of three 1F6 ADCs was then compared. HLA-A0201 PBMCs were stimulated with the M1 peptide and re-seeded as described for FIG. 18 with the various ADCs at the indicated concentrations (FIG. 19). The percent of CD8^+/Vβ17^+ T cells after a 96-hour incubation was determined.
(In general: In flow cytometry, cells or beads pass a laser one at a time.)

The next data set deals with Caki-1 tumors. The data set can be described thus: Caki-1 subcutaneous xenograft model of RCC. Format: in vivo, nude mice. Details: average tumor size: dose or concentration left out as unconfirmed. The text has this: Tumors were initiated in nude mice by implanting tissue tumor blocks (30 mm^3 in size) containing Caki-1 cells. Treatment began when average tumor size within a treatment group was around 100 mm^3. In the upper panel, treatment for the IgG and 1F6 groups began 17 days post implantation (filled arrow), while treatment for the 1F6-vcAFP and IgG-vcAFP groups began 25 days post implantation (open arrow). Indicated doses of either unconjugated mAbs or their ADCs were given for one course on a q4d×4 schedule.
Using xenografts of the Caki-1 line in nude mice, the […] antitumor activity of 1F6-vcAFP was tested. To establish Caki-1 tumors, nude mice were injected subcutaneously with 5×10^6 Caki-1 cells in 0.2 ml PBS. […] Caki-1-containing tumors were excised from tumor bearing mice and tumor tissue blocks of approximately 30 mm^3 were prepared. Naive nude mice to be used for evaluating in vivo antitumor activity of anti-CD70 ADC were each implanted subcutaneously with one tumor block of 30 mm^3. […] Treatment was initiated when the average tumor size within a group was approximately 100 mm^3 (FIG. 12, arrows).

The next data set deals with CD70^− Jurkat cells. Put plainly: 3H-TdR proliferation assay, hematologic lines. Type of data set: cell-based, human. The conditions noted are these: at concentrations as high as 2 μg/ml. The protocol: (§1) FIG. 5: Effects of anti-CD70 ADCs on the proliferation of transformed hematologic cell lines. A subset of the CD70^+ cell lines shown in FIG. 4 and the CD70^− Jurkat cell line were tested for their sensitivity toward 1F6 ADCs. Graded doses of the 1F6-vcMMAE, 1F6-vcAFP, or the corresponding non-binding control IgG (IgG) ADCs were added to cells at the initiation of culture. Cells were exposed to the ADCs continuously for a total of 96 hours. Proliferation was determined by pulsing with ^3H-TdR during the last 16 hours of incubation. The upper panels show the response of the WSU-NHL and Jurkat lines. The lower panel summaries the responses by the tested cell lines to 1F6-vcMMAE and 1F6-vcAFP in form of IC50s.
(§2) A subset of the CD70^+ hematologic lines listed in FIG. 4 was tested for sensitivity to the 1F6 ADCs. These lines were seeded at 5,000 cells per well in 96-well plates in quadruplicates in a total of 200 μl of culture medium containing graded doses of the ADCs as indicated in the FIG. 5 and the accompanying figure legend. Proliferation assays were carried out for 96 hours. Tritiated thymidine (^3H-TdR) incorporation during the last 16 hours of incubation was used to assess DNA synthesis. The responses of a CD70^+ B lymphoma cell line WSU-NHL and the CD70^− Jurkat cells are shown in the upper panels of FIG. 5. […] Proliferation inhibitory effects were apparent when the ADCs were used at concentrations higher than 0.005 μg/ml. […] On the other hand, proliferation of the CD70^− Jurkat acute T leukemia cell line was not affected by either 1F6-vcMMAE or 1F6-vcAFP at concentrations as high as 2 μg/ml. […] The responses of other CD70^+ cell lines tested are summarized in the lower panel of FIG. 5. […] Moreover, EBV-LCLs are phenotypically very similar to activated normal B cells.

For the next data set, the system named is WSU-NHL cells. Put plainly: 3H-TdR proliferation assay, hematologic lines. Format: cell-based, human. The conditions noted are these: 96 hours, 3H-TdR last 16 hours. The protocol:
as §1, §2

In data set [2] the test system is PBMCs stimulated with irradiated allogeneic CESS cells. The data set can be described thus: Mixed lymphocyte reaction (3H-TdR). Format: cell-based, human. Conditions: MLR.

This is an account of results in US8663642B2, “Anti-CD70 antibody-drug conjugates and their use for the treatment and prevention of cancer and immune disorders” (priority 2003, dated 2014).

B1: 1F6-vcAFP: anti-CD70 mAb 1F6 linked to auristatin phenylalanine phenylenediamine by the valine-citrulline (vc) dipeptide linker (conjugate)
VH: QIQLVQSGPEVKKPGETVKISCKASGYTFTNYGMNWVKQAPGKGLKWMGWINTYTGEPTYADAFKGRFAFSLETSASTAYLQINNLKNEDTATYFCARDYGDYGMDYWGQGTSVTVSS
VL: DIVLTQSPASLAVSLGQRATISCRASKSVSTSGYSFMHWYQQKPGQPPKLLIYLASNLESGVPARFSGSGSGTDFTLNIHPVEEEDAATYYCQHSREVPWTFGGGTKLEIKR
modifications: non-natural residues
notes: anti-CD70 mAb 1F6 linked to auristatin phenylalanine phenylenediamine by the valine-citrulline (vc) dipeptide linker
With B1, in data set [1] (1 μg/ml, 76 hours after ADC addition), the “number of CD8^+/Vβ17^+ T cells” value is “Virtually no expansion”. Besides, in data set [1] (1 μg/ml, end of the experiment), the “CD8^+/Vβ17^+ cells, of the control untreated culture” value is below 40%. The “inhibition of CD8^+/Vβ17^+ T cell expansion” value in data set [1] (96-hour incubation) is reported as “dose-dependent inhibition”. Further, the average tumor size in the data set on Caki-1 tumors (1, 56 days after treatment initiation) was below 600 mm^3; with Caki-1 tumors (3, 70 days after treatment initiation), “under 200 mm^3”. Besides, the “therapeutic activity / tumor growth” value in the data set with Caki-1 tumors (Caki-1 xenograft, q4d×4) was “significantly inhibited tumor growth”. Moreover, in the data set with CD70^− Jurkat cells, the “effect on proliferation of Jurkat cells” value was “not affected”. Also, the “effect on the proliferation of WSU-NHL cells” value in the data set on WSU-NHL cells is listed as “dose-dependent inhibitory effects”. Further, in data set [2], the relative activity entry is recorded as “more active than 1F6-vcMMAE”. Besides, the “IC50, T cell proliferation” value in data set [2] (5-day culture) is on record as “approximately 0.1 μg/ml”. The “effect on T cell proliferation” value in data set [2] (5-day culture) is given as “substantially inhibited T cell proliferation”.
